Source: patent US20210371527A1 (IMAGINAB, published 2021)

Target: T1, human CD4 on HPB-ALL cells (human, UniProt P01730 26-458)
T1 construct: The assay used HPB-ALL cells; no signal peptide limits are stated; also called HPB-ALL cells (human T cell leukemia, DSMZ ACC 483); HPC-ALL
Assay: flow cytometry on HPB-ALL cells

Row | binding result | Binder
1 | binds | deferoxamine conjugated humanized IAB41-1 minibody (other, deferoxamine (Df) chelator conjugated; sites of conjugation not stated, also called Df-Hu-IAB41-1) EIVLTQSPATLSLSPGERATLSCSARSSVSYLYWYQQKPGQAPRLLIYDTSNLASGIPDRFSGSGSGTDFTLTISRLEPEDAAVYYCQQWSDYPLTFGGGTKLEIKGSTSGGGSGGGSGGGGSSQVQLVQSGAEVKKPGASVKVSCKASGYSFANYWMHWVRQAPGQRLEWIGALYPGNVDTTYNQKFQGRVTITRDTSASTAYMELSSLRSEDTAVYYCTRMGTTLEAPLDYWGQGTLVTVSSEPKSSDKTHTCPPCPPCGGGSSGGGSGGQPREPQVYTLPPSREEMTKNQVSLTCLVKGFYPSDIAVEWESNGQPENNYKTTPPVLDSDGSFFLYSKLTVDKSRWQQGNVFSCSVMHEALHNHYTQKSLSLSPG
2 | binds | humanized IAB41-1 minibody (other, also called Hu-IAB41-1; Construct 41-1) EIVLTQSPATLSLSPGERATLSCSARSSVSYLYWYQQKPGQAPRLLIYDTSNLASGIPDRFSGSGSGTDFTLTISRLEPEDAAVYYCQQWSDYPLTFGGGTKLEIKGSTSGGGSGGGSGGGGSSQVQLVQSGAEVKKPGASVKVSCKASGYSFANYWMHWVRQAPGQRLEWIGALYPGNVDTTYNQKFQGRVTITRDTSASTAYMELSSLRSEDTAVYYCTRMGTTLEAPLDYWGQGTLVTVSSEPKSSDKTHTCPPCPPCGGGSSGGGSGGQPREPQVYTLPPSREEMTKNQVSLTCLVKGFYPSDIAVEWESNGQPENNYKTTPPVLDSDGSFFLYSKLTVDKSRWQQGNVFSCSVMHEALHNHYTQKSLSLSPG
